# In US9632088B2, “Methods and compositions for gamma-secretase assay” (MEMORIAL SLOAN-KETTERING CANCER CENTER, priority 2010, dated 2017):
# How the values were obtained:
# [1] = target: T1, γ-secretase (HeLa membrane) (Homo sapiens, UniProt P49768); test: In vitro N1-Sb1 γ-secretase assay (ALPHA detection with SM320), HeLa membrane; type: biochemical
# T1 construct: host or cells: HeLa-S3 cells, total membrane fraction
# Protocol: (§1) HeLa membrane fraction was isolated from HeLa-S3 cells (National Cell Culture Center). The cell pellet was resuspended in Buffer A (50 mM MES, 150 mM KCl, 5 mM CaCl2, 5 mM MgCl2) and lysed by passage through a French Press. N2a cells (murine neuroblastoma cells) over-expressing wild-type PS1, or mutants M146L or E280A, were obtained from Dr. Sangram Sisodia (University of Chicago, Chicago, Ill.). These cells were maintained in 50% Dulbecco's modified Eagle's medium high glucose, 50% Opti-Mem Reduced Serum Media, and 10% fetal calf serum. Cultured cells were pelleted by centrifugation and resuspended in hypotonic buffer (40 mM Tris, pH 7.4, 10 mM NaCl, 1 mM EDTA, and 0.5 mM DTT) for 20 minutes before being lysed with a dounce homogenizer. Nuclear debris from the HeLa and N2a cells were pelleted at 3000 rpm for 30 minutes. The resulting supernatants were ultracentrifuged at 100,000×g for 1 hour. The pellet that contained total cell membrane was resuspended in Buffer A. Mouse brains overexpressing knock-in wild type or M146V PS1 (gift from Dr. Hui Zheng, Amylin Pharmaceuticals, San Diego, Calif.) were homogenized with dounce homogenizer. The cell lysate was centrifuged at 3000 rpm for 30 minutes. The supernatants were ultracentrifuged at 100,000×g for 1 hour. Protein concentration was determined with the DC Protein Assay Kit according to the manufacturer's instructions (Bio-Rad, Hercules, Calif.).
# An in vitro γ-secretase assay using a novel recombinant APP-derived substrate (termed “Sb4”) is disclosed in co-pending application U.S. Ser. No. 12/776,141. In the present assay based on a Notch-derived substrate, N1-Sb1 was incubated with the cell membrane fraction, prepared as described above, in the presence of 0.25% CHAPSO and 1×PIPES buffer (50 mM PIPES, pH 7.0, 150 mM KCl, 5 mM CaCl2, 5 mM MgCl2. The reaction was incubated at 37° C. for 2 hours. The Perkin Elmer AlphaScreen™ detection system was employed to assay for Notch cleavage. AlphaScreen (PerkinElmer Life and Analytical Sciences, Shelton, Conn.) is a bead based non-radioactive Amplified Luminescent Proximity Homogeneous Assay (ALPHA). When a biological interaction brings the beads together, a cascade of chemical reactions acts to produce a greatly amplified signal. Specifically, upon laser excitation, a photosensitizer in the “Donor” bead converts ambient (triplet) oxygen to the more reactive singlet state. […] As a result no fluorescence signal at 520-620 nm is produced.
# (§2) In the present system, antibody SM320, Protein A-conjugated acceptor beads, and Streptavidin-conjugated donor beads (PerkinElmer) were added to the reaction at a final concentration of 0.2 μg/ml, 2.5 μg/ml and 5 μg/ml, respectively (diagrammed in FIG. 5A). […] The ALPHA signal was detected using the Envision plate reader (Perkin Elmer). The reactions were excited at 680 nm and signal was detected at 615 nm.
# HeLa membrane was incubated with N1-Sb1 substrate in the presence of 0.25% CHAPSO. The γ-secretase cleavage product (cN1-Sb1) was detected by the PerkinElmer proximity assay (ALPHA) using the SM320 antibody, Protein A-conjugated acceptor-beads (which bind SM320) and streptavidin-conjugated donor-beads (which bind biotin) (FIG. 5A). cN1-Sb1 levels in DMSO-treated assay was 10-fold higher than in the presence of the inhibitor L-685,458 (L458; structure shown below)-treated assay. […]
# [2] = target: T2, wild-type PS1 γ-secretase (Homo sapiens, UniProt P49768); test: In vitro N1-Sb1 γ-secretase assay, membrane of N2a cells expressing wild-type PS1; type: biochemical, murine; conditions: for reactivity (rate of γ-secretase cleavage) compared with WT substrate: WT PS1, N2a membrane
# T2 construct: total membrane
# Protocol: as §1
# (§3) An in vitro γ-secretase assay using a novel recombinant APP-derived substrate (termed “Sb4”) is disclosed in co-pending application U.S. Ser. No. 12/776,141. In the present assay based on a Notch-derived substrate, N1-Sb1 was incubated with the cell membrane fraction, prepared as described above, in the presence of 0.25% CHAPSO and 1×PIPES buffer (50 mM PIPES, pH 7.0, 150 mM KCl, 5 mM CaCl2, 5 mM MgCl2. The reaction was incubated at 37° C. for 2 hours. The Perkin Elmer AlphaScreen™ detection system was employed to assay for Notch cleavage. AlphaScreen (PerkinElmer Life and Analytical Sciences, Shelton, Conn.) is a bead based non-radioactive Amplified Luminescent Proximity Homogeneous Assay (ALPHA). When a biological interaction brings the beads together, a cascade of chemical reactions acts to produce a greatly amplified signal. Specifically, upon laser excitation, a photosensitizer in the “Donor” bead converts ambient (triplet) oxygen to the more reactive singlet state. The singlet state oxygen molecules diffuse into the solvent, and may react with a thioxene derivative in the Acceptor bead if nearby, generating chemiluminescence at 370 nm that further activates fluorophores contained in the same bead. The fluorophores subsequently emit light at 520-620 nm. In the absence of a specific biological interaction, the singlet state oxygen molecules produced by the donor bead go undetected without the close proximity of the acceptor bead. As a result no fluorescence signal at 520-620 nm is produced.
# (§4) In the present system, antibody SM320, Protein A-conjugated acceptor beads, and Streptavidin-conjugated donor beads (PerkinElmer) were added to the reaction at a final concentration of 0.2 μg/ml, 2.5 μg/ml and 5 μg/ml, respectively (diagrammed in FIG. 5A). The reaction was incubated in the dark at room-temperature for 4 hours. The ALPHA signal was detected using the Envision plate reader (Perkin Elmer). The reactions were excited at 680 nm and signal was detected at 615 nm.
# (§5) The effects of PS1 FAD mutations on Notch cleavage were determined using the new γ-secretase assay described in Example 2. The activities of two PS1 FAD mutations—PS1 M146L and E280A were compared against wild-type PS1 (WT), which has been previously studied (25). Total membrane was isolated from N2a cells that stably express WT, M146L, or E280A mutants. N1-Sb1 was incubated with these membranes and the resulting cN1-Sb1 was detected with SM320. […] The M146L and E280A mutants had 40% and 14% activity remaining, respectively, compared to the activity of the wild type (FIG. 7A). […]
# M146L PS1 γ-secretase = target: T3, M146L PS1 γ-secretase (Homo sapiens, UniProt P49768, M146L); test: In vitro N1-Sb1 γ-secretase assay, membrane of N2a cells expressing M146L PS1; type: biochemical, murine; conditions: M146L PS1, N2a membrane
# T3 construct: total membrane
# Protocol: as §1, §3, §4, §5
# E280A PS1 γ-secretase = target: T4, E280A PS1 γ-secretase (Homo sapiens, UniProt P49768, E280A); test: In vitro N1-Sb1 γ-secretase assay, membrane of N2a cells expressing E280A PS1; type: biochemical, murine; conditions: E280A PS1, N2a membrane
# T4 construct: total membrane
# Protocol: as §1, §3, §4, §5
# [3] = target: T5, WT PS1 γ-secretase (knock-in mouse brain) (Mus musculus, UniProt P49769); test: In vitro N1-Sb1 γ-secretase assay, knock-in wild type PS1 mouse brain membrane; type: biochemical
# T5 construct: Total membrane from these mouse brains was isolated; tissue gift from Dr. Hui Zheng; host or cells: mouse brain (PS1 knock-in), total membrane
# Protocol: as §1, with “The pellet that contained total cell membrane was resuspended in Buffer A. Mouse brains overexpressing knock-in wild type or M146V PS1 (gift from Dr. Hui Zheng, Amylin Pharmaceuticals, San Diego, Calif.) were homogenized with dounce homogenizer. The cell lysate was centrifuged at 3000 rpm for 30 minutes. The supernatants were ultracentrifuged at 100,000×g for 1 hour.” left out
# (§6) An in vitro γ-secretase assay using a novel recombinant APP-derived substrate (termed “Sb4”) is disclosed in co-pending application U.S. Ser. No. 12/776,141. […] As a result no fluorescence signal at 520-620 nm is produced.
# as §2
# (§7) Mouse brain specimens were obtained that either expressed knock-in wild type PS1 or the M146V PS1 mutation (25, 26). […] The cN1-Sb1 cleavage product was detected with the new in-vitro γ-secretase assay of Example 2. […]
# [4] = system: M146V PS1 γ-secretase (knock-in mouse brain); test: In vitro N1-Sb1 γ-secretase assay, knock-in M146V PS1 mouse brain membrane; type: biochemical
# Protocol: as §1, §6, §2, §7
# [5] = read-out: Km for N1-Sb1 cleavage
molecule,measurement,setting,value
"N1-Sb1: biotinylated recombinant substrate: human Notch1 fragment (residues 1733-1812) with AviTag (protein, biotinylated; Notch substrate N1Sb1 (NTM2), biotinylated recombinant substrate: human Notch1 fragment (residues 1733-1812) with AviTag) PAQLHFMYVAAAAFVLLFFVGCGVLLSRKRRRQHGQLWFPEGFKVSEASKKKRREPLGEDSVGLKPLKNASDGALMDDNQN",Vmax of N1-Sb1 cleavage,[1]; arbitrary units,38 Unit/μg/min
same,Km,[1]; read-out: apparent Km of N1-Sb1 cleavage by γ-secretase,0.15 ± 0.03 µM
same,Vmax for N1-Sb1 cleavage,"[2]; PS1 wild-type, N2a membrane",293 U/μg/min
same,Km,"[2]; PS1 wild-type, N2a membrane, read-out: Km for N1-Sb1 cleavage",0.07 µM
same,N1-Sb1 cleavage activity remaining compared to wild type PS1,M146L PS1 γ-secretase,40%
same,Vmax for N1-Sb1 cleavage,M146L PS1 γ-secretase,163 U/μg/min
same,Km,M146L PS1 γ-secretase; [5],0.049 µM
same,N1-Sb1 cleavage activity remaining compared to wild type PS1,E280A PS1 γ-secretase,14%
same,Vmax for N1-Sb1 cleavage,E280A PS1 γ-secretase,49 U/μg/min
same,Km,E280A PS1 γ-secretase; [5],0.05 µM
same,Vmax for N1-Sb1 cleavage,[3]; WT PS1 mouse brain membrane,52 U/μg/min
same,Km,"[3]; WT PS1 mouse brain membrane, read-out: Km for N1-Sb1 cleavage",0.06 µM
same,Notch (N1-Sb1) cleavage activity compared to wild-type PS1,[4]; M146V PS1 mouse brain membrane,less activity
same,Vmax for N1-Sb1 cleavage,[4]; M146V PS1 mouse brain membrane,40 U/μg/min
same,Km,"[4]; M146V PS1 mouse brain membrane, read-out: Km for N1-Sb1 cleavage",0.048 µM
"C1752A: N1-Sb1 substrate with P2 residue Cys 1752 substituted with Ala (protein, UniProt P46531 1733-1812, looked up, variant C1752A, biotinylated AviTag, N1-Sb1 substrate with P2 residue Cys 1752 substituted with Ala) QLHFMYVAAAAFVLLFFVGAGVLLSRKRRRQHGQLWFPEGFKVSEASKKKRREPLGEDSVGLKPLKNASDGALMDDNQNE",reactivity (rate of γ-secretase cleavage) compared with WT substrate,[2],20-30%
same,reactivity (rate of γ-secretase cleavage) compared with WT substrate,M146L PS1 γ-secretase,20-30%
same,reactivity (rate of γ-secretase cleavage) compared with WT substrate,E280A PS1 γ-secretase,20-30%
"C1752V: N1-Sb1 substrate with P2 residue Cys 1752 substituted with Val (protein, UniProt P46531 1733-1812, looked up, variant C1752V, biotinylated AviTag, N1-Sb1 substrate with P2 residue Cys 1752 substituted with Val) QLHFMYVAAAAFVLLFFVGVGVLLSRKRRRQHGQLWFPEGFKVSEASKKKRREPLGEDSVGLKPLKNASDGALMDDNQNE",reactivity (rate of γ-secretase cleavage) compared with WT substrate,[2],no effect
same,reactivity (rate of γ-secretase cleavage) compared with WT substrate,M146L PS1 γ-secretase,141.3±17.9%
same,reactivity (rate of γ-secretase cleavage) compared with WT substrate,E280A PS1 γ-secretase,no effect
"C1752M: N1-Sb1 substrate with P2 residue Cys 1752 substituted with Met (protein, UniProt P46531 1733-1812, looked up, variant C1752M, biotinylated AviTag, N1-Sb1 substrate with P2 residue Cys 1752 substituted with Met) QLHFMYVAAAAFVLLFFVGMGVLLSRKRRRQHGQLWFPEGFKVSEASKKKRREPLGEDSVGLKPLKNASDGALMDDNQNE",reactivity (rate of γ-secretase cleavage) compared with WT substrate,[2],no effect
same,reactivity (rate of γ-secretase cleavage) compared with WT substrate,M146L PS1 γ-secretase,166.4±6.1%
same,reactivity (rate of γ-secretase cleavage) compared with WT substrate,E280A PS1 γ-secretase,185.5±7.4%
same,reactivity (rate of γ-secretase cleavage) compared with WT substrate,[3]; WT PS1 knock-in mouse brain,no effect
same,reactivity (rate of γ-secretase cleavage) compared with WT substrate,[4]; M146V knock-in PS1 mouse brain,127.4±3.7%
